The values that follow come from US20110172107A1, “ASSAY FOR IDENTIFYING AGENTS THAT MODULATE EPIGENETIC SILENCING, AND AGENTS IDENTIFIED THEREBY” (FOX CHASE CANCER CENTER, priority 2008, published 2011).

Test [1] deals with heterochromatin protein 1 gamma (HP1γ) (Homo sapiens (Human)) (UniProt Q13185). Kind of test: cell-based or functional assay.
Test [2] deals with silent GFP reporter in HeLa TI-C cell clones. Kind of test: GFP reactivation in TI-C silent cell clones (FACS). It is filed as cell-based, human. As to conditions: TSA treatment, FACS after 24 hours, vs DMSO control. The text has this:
Cells. HeLa cell populations containing silent GFP genes, as described by Katz et al., 2007, J. Virol. 81:2592-2604, were utilized. TI-C cell clones were isolated by cell sorting as described by Katz et al., 2007, J. Virol. 81:2592-2604.
Analysis of GFP expression. GFP expression was quantitated by FACScan as described previously (Greger et al., 2005, J. Virol. 79:4610-4618; Katz et al., 2007, J. Virol. 81:2592-2604; Poleshko et al., 2008, J. Virol. 82:2313-2323).
Evidence for position-independent roles for HDAC1 and Daxx in retroviral reporter gene silencing. To determine if the integration sites of the retroviral DNA are determinants for the participation of specific host factors that control epigenetic silencing, a series of TI-C cell clones was examined. These clones were derived from a pool of cells in which the average GFP copy number was ca. 1 as measured by quantitative real-time PCR (Katz et al., 2007, J. Virol. 81:2592-2604; Poleshko et al., 2008, J. Virol. 82:2313-2323). […] As with the TI-C cell population, transfection with the HDAC1 siRNA pool phenocopied the TSA treatment (compare FIGS. 4A and B). Based on analyses of these clones, it was concluded that HDAC1 and, in most cases, Daxx are required for the maintenance of silencing at independent loci, but the integration site may modulate the extent of reactivation.

Chain of UniProt Q13185 (Q13185 whole entry): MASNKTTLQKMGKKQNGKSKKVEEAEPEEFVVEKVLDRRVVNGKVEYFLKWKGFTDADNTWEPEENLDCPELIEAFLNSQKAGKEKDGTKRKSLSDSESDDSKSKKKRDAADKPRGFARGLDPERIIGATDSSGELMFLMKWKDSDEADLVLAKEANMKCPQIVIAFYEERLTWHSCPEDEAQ

In test [1], “dominant negative form of HP1 (dnHP1) (from UniProt P83916 104-185)” showed a GFP-positive cells at 5 days postinfection (FACS) (% GFP-positive cells) of 24.

Regarding `CC(/C=C/C(=O)NO)=C\[C@@H](C)C(=O)c1ccc(N(C)C)cc1` [TSA, trichostatin A], in test [2], the “GFP reactivation in TI-C cell clones” value was “induced GFP reactivation, but to various degrees”.
